Results: publication PMC2721222 (Cancer research, 2009)

T1: His-tagged MUC1 cytoplasmic domain (UniProt P15941 1182-1255)
T1 sequence (looked up): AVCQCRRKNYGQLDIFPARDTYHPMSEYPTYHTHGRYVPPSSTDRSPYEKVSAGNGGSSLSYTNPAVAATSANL


Experiments:
[1] = target: MUC1-CD cytoplasmic domain (Homo sapiens) (UniProt P15941); settings: cited from earlier work
[2] = target: T1, His-tagged MUC1 cytoplasmic domain; assay: SPR

Kd [2] [nM] | Molecule | Kd [1] [nM]
 | MUC1-CD cytoplasmic domain (from UniProt P15941) | 33
30 | CQCRRKNYGQLDIFP (poly D-arginine transduction domain (D-residues)) [GO-201] | 
